The source of these data is patent publication US20090031441A1 (NATIONAL UNIVERSITY CORPORATION NAGOYA UNIVERSITY, published 2009).

In assay [1] the target is T1, RGL3 (Arabidopsis DELLA protein), yeast two-hybrid prey in pGADT7 AD vector (Arabidopsis, UniProt Q9LF53 1-523).
T1 construct: also called AtDELLA
T1 sequence (looked up): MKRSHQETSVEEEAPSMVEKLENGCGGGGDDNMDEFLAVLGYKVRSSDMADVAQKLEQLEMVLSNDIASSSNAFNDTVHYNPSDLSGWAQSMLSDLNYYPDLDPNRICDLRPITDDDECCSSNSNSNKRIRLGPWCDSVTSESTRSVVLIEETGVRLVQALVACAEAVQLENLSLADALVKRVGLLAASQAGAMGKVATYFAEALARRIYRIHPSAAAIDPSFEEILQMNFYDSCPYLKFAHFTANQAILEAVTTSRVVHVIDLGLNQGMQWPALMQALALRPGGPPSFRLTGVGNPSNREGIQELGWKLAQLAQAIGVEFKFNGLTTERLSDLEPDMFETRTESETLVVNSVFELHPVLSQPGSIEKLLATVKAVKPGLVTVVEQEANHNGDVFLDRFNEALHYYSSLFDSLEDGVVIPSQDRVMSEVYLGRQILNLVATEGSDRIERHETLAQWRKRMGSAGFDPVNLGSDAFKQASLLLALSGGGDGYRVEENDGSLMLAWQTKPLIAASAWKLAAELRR
The experiment in a line: yeast two-hybrid, AtGID1 bait and AtDELLA prey, 10^-5 M GA4 in medium; colony growth (Assay A) and beta-galactosidase activity (Assay B). Here is the method: (§1) Panel A) depicts AtGID1-AtDELLA interaction in the presence of GA in two types of yeast hybrid (Y2H) assays. Each AtGID1 was used as a bait while AtDELLA was a prey. GA₄ (10⁻⁵ M) was added to the medium. The bars indicates β-galactosidase activity when o-nitrophenol-β-D-galactopyranoside was used as a substrate (Assay B). The growth of each transformant in the defined medium for 2 days (Assay A) is shown beneath of each bar graph. The experiment was carried out in quadruplicate. The SD value shown in the figure was determined from three measurements. Panel B) depicts the dose response in AtGID1-RGA interaction in Assay B of Y2H. GA₄ (10⁻⁵ to 10⁻⁹ M) was added to the medium. The experiment was conducted in duplicates. The SD value shown in the figure was determined from three measurements. Panel C) depicts the results of an evaluation of the in vitro GA-binding potency of AtGID1 using AtDELLA. Left panel, 15 minutes after mixing AtGID1c (C), tritiated GA, with an excess amount of non-labeled GA (+) or without non-labeled GA (−). GAI (G) or RGA (R) was added, and then the GA-binding activity in each reaction mixture was measured according to the standard method. Recombinant protein originating from the vector (v) was used as a negative control. The experiment was carried out in duplicates. The SD value was determined from three measurements. Right panel, a profile of Western blotting for recombinant AtDELLA using an antibody to His tag. G, GAI; R, RGA; v, vector; M, molecular weight marker.
(§2) Arabidopsis has five DELLA proteins (RGA, GAI, RGL1, RGL2, and RGL3; collectively designated AtDELLA; Fleet, C. M., and Sun, T.-P. (2005) Curr. Opin. Plant Biol., 8, 77-85; Dill, A., and Sun, T. (2001) Genetics, 159, 777-785); therefore, there are 15 possible combinations of GID1/DELLA proteins. To verify the positive interactions between AtGID1-AtDELLA, two experiments were conducted using the yeast two hybrid (Y2H) system. […] In the second experiment (Assay B), β-galactosidase activity was measured, as reporter gene product of AtGID1-AtDELLA interactions. […]

Assay [2] concerns the target T2, RGA (Arabidopsis DELLA protein), yeast two-hybrid prey in pGADT7 AD vector (Arabidopsis, UniProt Q9SLH3 1-587).
T2 construct: also called AtDELLA
T2 sequence (looked up): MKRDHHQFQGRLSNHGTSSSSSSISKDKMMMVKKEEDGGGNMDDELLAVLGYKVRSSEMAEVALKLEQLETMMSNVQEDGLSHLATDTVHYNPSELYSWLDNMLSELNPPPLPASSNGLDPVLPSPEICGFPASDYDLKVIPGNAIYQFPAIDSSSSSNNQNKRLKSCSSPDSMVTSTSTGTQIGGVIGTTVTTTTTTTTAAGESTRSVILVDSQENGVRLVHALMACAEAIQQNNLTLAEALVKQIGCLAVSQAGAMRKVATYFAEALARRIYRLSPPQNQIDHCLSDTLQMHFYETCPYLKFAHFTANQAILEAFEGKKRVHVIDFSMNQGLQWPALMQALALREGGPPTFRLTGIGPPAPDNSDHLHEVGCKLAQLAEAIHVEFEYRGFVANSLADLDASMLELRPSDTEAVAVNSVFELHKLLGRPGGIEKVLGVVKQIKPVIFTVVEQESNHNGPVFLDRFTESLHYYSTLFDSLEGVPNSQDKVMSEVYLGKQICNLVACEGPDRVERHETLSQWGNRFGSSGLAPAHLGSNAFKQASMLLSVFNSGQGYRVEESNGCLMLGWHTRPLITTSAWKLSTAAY
Described as above. The protocol: as §1, §2

B1: AtGID1b (At3g63010), yeast two-hybrid bait in pGBKT7 DNA-BD vector (receptor, not shown: small tags and cut ends)
chain: MAGGNEVNLNECKRIVPLNTWVLISNFKLAYKVLRRPDGSFNRDLAEFLDRKVPANSFPLDGVFSFDHVDSTTNLLTRIYQPASLLHQTRHGTLELTKPLSTTEIVPVLIFFHGGSFTHSSANSAIYDTFCRRLVTICGVVVVSVDYRRSPEHRYPCAYDDGWNALNWVKSRVWLQSGKDSNVYVYLAGDSSGGNIAHNVAVRATNEGVKVLGNILLHPMFGGQERTQSEKTLDGKYFVTIQDRDWYWRAYLPEGEDRDHPACNPFGPRGQSLKGVNFPKSLVVVAGLDLVQDWQLAYVDGLKKTGLEVNLLYLKQATIGFYFLPNNDHFHCLMEELNKFVHSIEDSQSKSSPVLLTP
notes: Bait fusion for the Y2H assays; also called Arabidopsis GID1
Regarding B1, the binding result in assay [1] is reported as “binds”.

B2: AtGID1a (At3g05120), yeast two-hybrid bait in pGBKT7 DNA-BD vector (receptor, not shown: small tags and cut ends)
chain: MAASDEVNLIESRTVVPLNTWVLISNFKVAYNILRRPDGTFNRHLAEYLDRKVTANANPVDGVFSFDVLIDRRINLLSRVYRPAYADQEQPPSILDLEKPVDGDIVPVILFFHGGSFAHSSANSAIYDTLCRRLVGLCKCVVVSVNYRRAPENPYPCAYDDGWIALNWVNSRSWLKSKKDSKVHIFLAGDSSGGNIAHNVALRAGESGIDVLGNILLNPMFGGNERTESEKSLDGKYFVTVRDRDWYWKAFLPEGEDREHPACNPFSPRGKSLEGVSFPKSLVVVAGLDLIRDWQLAYAEGLKKAGQEVKLMHLEKATVGFYLLPNNNHFHNVMDEISAFVNAEC
notes: Bait fusion for the Y2H assays (BD Matchmaker Two-hybrid System 3); also called Arabidopsis GID1
Regarding B2, the binding result in assay [2] is “binds”.
